Data published in patent publication US20220016245A1, “CONJUGATE OF BIOTIN-MODIFIED DIMER AND PHTHALOCYANINE DYE” (The University of Tokyo, priority 2018, published 2022).

Columns and labels:
[1] = target: T1, Recombinant Human CEACAM-5/CD66e Protein, CF (R & D SYSTEMS) (human, UniProt P06731 35-685); experiment: SPR, Biacore T200; CEACAM5 immobilized by amine coupling (279 RU), CEA-V2122 as analyte, single-cycle kinetics, bivalent analysis fit (KD = kd1/ka1)
T1 construct: Bought protein, immobilized on the sensor chip by amine coupling
T1 sequence (looked up): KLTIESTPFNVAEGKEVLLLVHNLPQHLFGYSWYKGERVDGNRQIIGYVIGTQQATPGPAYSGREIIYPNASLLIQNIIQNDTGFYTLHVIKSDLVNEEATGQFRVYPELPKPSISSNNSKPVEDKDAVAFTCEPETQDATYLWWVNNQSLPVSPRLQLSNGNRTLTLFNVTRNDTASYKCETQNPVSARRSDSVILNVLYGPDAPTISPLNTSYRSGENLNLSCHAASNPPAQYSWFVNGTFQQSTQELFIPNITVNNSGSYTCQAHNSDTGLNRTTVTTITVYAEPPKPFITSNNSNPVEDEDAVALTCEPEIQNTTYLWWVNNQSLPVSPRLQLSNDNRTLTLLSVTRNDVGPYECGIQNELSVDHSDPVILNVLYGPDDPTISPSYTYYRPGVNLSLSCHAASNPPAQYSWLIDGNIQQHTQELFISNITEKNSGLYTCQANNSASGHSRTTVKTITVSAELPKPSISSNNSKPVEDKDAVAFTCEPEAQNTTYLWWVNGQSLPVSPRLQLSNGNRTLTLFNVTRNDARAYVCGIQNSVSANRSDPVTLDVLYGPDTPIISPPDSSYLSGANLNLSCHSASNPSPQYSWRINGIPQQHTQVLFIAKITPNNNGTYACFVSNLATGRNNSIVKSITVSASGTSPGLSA

CEACAM5 = target: T2, CEACAM5 (Homo sapiens, UniProt P06731); experiment: cell staining of CEACAM5-expressing cell line using FITC-labeled CEA-V2122; type: cell-based
T2 construct: endogenous in cells; host or cells: MKN-45 (CEACAM5-positive); DLD1 (CEACAM5-negative control)
T2 sequence (P06731 35-676): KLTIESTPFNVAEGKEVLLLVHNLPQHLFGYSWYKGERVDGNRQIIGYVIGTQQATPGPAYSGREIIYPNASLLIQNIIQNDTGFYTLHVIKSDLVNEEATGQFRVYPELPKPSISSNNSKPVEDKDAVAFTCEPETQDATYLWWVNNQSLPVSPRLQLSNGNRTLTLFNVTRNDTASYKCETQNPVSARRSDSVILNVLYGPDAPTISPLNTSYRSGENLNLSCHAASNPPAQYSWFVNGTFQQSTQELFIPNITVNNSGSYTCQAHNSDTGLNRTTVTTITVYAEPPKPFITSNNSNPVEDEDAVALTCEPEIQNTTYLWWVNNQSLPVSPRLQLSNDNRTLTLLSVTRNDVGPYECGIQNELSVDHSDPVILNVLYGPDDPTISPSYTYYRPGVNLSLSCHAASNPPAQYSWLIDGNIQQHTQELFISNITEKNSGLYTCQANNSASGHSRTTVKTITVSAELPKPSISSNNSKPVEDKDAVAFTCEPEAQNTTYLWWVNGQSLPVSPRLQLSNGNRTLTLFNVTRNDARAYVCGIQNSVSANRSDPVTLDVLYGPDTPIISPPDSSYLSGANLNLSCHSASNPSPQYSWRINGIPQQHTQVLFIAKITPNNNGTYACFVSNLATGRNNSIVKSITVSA
Procedure: In order to stain a CEACAM5 expression-positive cancer cell line, FITC labeling was carried out on the cell line, using 100 μg of a purified CEA-V2122 protein. Specifically, labeling was carried out using Fluorescein Labeling Kit—NH2 (DOJINDO LABORATORIES) in accordance with the protocol and amount described in the operating manual included with the kit, and the obtained product was defined to be CEA-V2122-FITC. Specific staining of the CEACAM5 expression-positive cancer cell line is as follows. That is, CEACAM5-positive human stomach cancer-derived MKN-45 cells and CEACAM5-negative human colon cancer-derived DLD1 cells were each seeded on a CELLSTAR, μClear, 96-well plate (Greiner) to a cell density of 2.0×10^4 cells/well, and thereafter, the cells were cultured overnight. Subsequently, a culture solution containing 20 nM CEA-V2122-FITC and 1 μM Hoechist was added to the 96-well plate to a concentration of 100 μL/well, and the obtained mixture was then reacted at 4° C. for 30 minutes. Thereafter, each image was taken using In Cell Analyzer 6000 (GE Healthcare Life Sciences).

[2] = target: T3, Recombinant Human CEACAM-5/CD66e Protein (Homo sapiens, UniProt P06731); experiment: SPR (Biacore T200) affinity of CEA-V2122 for antigen CEACAM5; type: binding
T3 construct: purchased R & D SYSTEMS
T3 sequence (P06731 35-676): T2 sequence (P06731 35-676)

[3] = single-cycle kinetics, bivalent analysis mode

B1: CEA-V2122 (scFv)
chain: QVKLEQSGAEVVKPGASVKLSCKASGFNIKDSYMHWLRQGPGQRLEWIGWIDPENGDTEYAPKFQGKATFTTDTSANTAYLGLSSLRPEDTAVYYCNEGTPTGPYYFDYWGQGTLVTVSSGGGGSGGGGSGGGGSENVLTQSPSSMSVSVGDRVNIACSASSSVPYMHWLQQKPGKSPKLLIYLTSNLASGVPSRFSGSGSGTDYSLTISSVQPEDAATYYCQQRSSYPLTFGGGTKLEIKGGGGSGGGGAEAGITGTWSDQLGDTFIVTAGADGALTGTYENAVGGAESRYVLTGRYDSAPATDGSGTALGWTVAWKNNSKNAHSATTWSGQYVGGADAKINTQWLLTSGTTNANAWKSTLVGHDTFTKVKPSAASHHHHHH
notes: Fusion of an anti-CEACAM5 scFv and mutant streptavidin V2122; also called CEA-Cupid; scFv-V2122
Q: B1 was tested. Which Kd [1] did it give?
A: 1.08 pM

B2: CEA-V2122-FITC: purified CEA-V2122 protein labeled with Fluorescein Labeling Kit—NH2 (conjugate)
chain: B1 chain
Q: Which results are given for B2?
A: recognition of CEACAM5 on cells (FIG. 7) (CEACAM5; 20 nM, 4° C. 30 minutes, CEACAM5-positive MKN-45 vs CEACAM5-negative DLD1 cells): specifically recognizes CEACAM5 on the surface of the cell membrane; localisation of CEACAM5 after binding (FIG. 8) (CEACAM5; time-series images of MKN45 cells): the CEACAM5 stays on the surface of the cell membrane

B3: CEA-V2122: scFv-type anti-CEACAM5 antibody bound with mutant streptavidin V2122 via an amino acid linker, SEQ ID NO: 14 (protein)
chain: B1 chain
Q: Which “KD=kd1/ka1” value ([2]; bivalent analysis) does the source give for B3 here?
A: 1.078E−12

Q: What about the “binding to CEACAM5 (FIG. 5)” value ([2]; from the KD value in the sensorgram) of the same molecule?
A: strongly binds to CEACAM5

Q: What about the ka1 [2, 3] of the same molecule?
A: 3.208E+5

Q: And the kd1 [2, 3]?
A: 3.461E−7
